Among the data in the supplement of paper PMC12042874 are amyloid nucleation score values, retold here.

± gives the uncertainty stated by the source.

This series can be described thus: amyloid nucleation score (Sup35N fusion, yeast selection) (log enrichment); library NNK2; higher = more nucleation; inactive = no reads after selection. The procedure, abridged:
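Output and input plasmid inserts were sequenced by Illumina after psi-negative yeast carrying Sup35N fused to peptides of 20 random codons had been induced 24 hours with 100 μM copper sulfate and grown 7 days at 30°C on medium lacking adenine and uracil. The nucleation score is the DiMSum log enrichment of output over input reads, centred on the mode score of non-aggregating sequences. Sequences with under 100 input reads were excluded.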
Take DMGNDLRDRVRGFSALMLWR: the amyloid nucleation score result is “inactive”.

As to DMQGYFCSLTLMFMFRPRIM, the amyloid nucleation score result is “inactive”.

In turn, DNEMRYGDRSSVFI had an amyloid nucleation score of 1.32 ± 0.24.

DNLLSPTSRKFRVDTILL yielded an amyloid nucleation score of -0.256 ± 0.4.

In the case of DPRLSSLSCMGRWHHNYHAS, the amyloid nucleation score came out at 0.772 ± 0.5.

Regarding DPVRWRVKFFFYDSEVCGPL, the amyloid nucleation score turned out to be 2.73 ± 0.17.

On to DPVSYILDWASRGNS, for which the amyloid nucleation score came out at 0.523 ± 0.64.

DPYYLKGYCVWEEYSWCPS showed an amyloid nucleation score of -0.749 ± 0.55.

For the substance DQVLHCSLDQSVGGSDQL, the amyloid nucleation score result was “inactive”.

As to DRGTGNRGSCDRSYLDSGKV, the amyloid nucleation score amounted to 0.963 ± 0.29.

DRIYNVGRSRTGRSLFYSPV had an amyloid nucleation score of -1.19 ± 0.38.

In turn, DRLVSLAYLMWFGKMGWDKG returned an amyloid nucleation score of 0.05 ± 0.51.

As to DRVCGLPNVHSCVCYFAGRN, the amyloid nucleation score amounted to 5.47 ± 0.076.

Turning to DSIGVVFEVKTGKARASGVV, the amyloid nucleation score was found to be 0.171 ± 0.49.

The substance DSLKFSLRLVHLPLPIYGCC yielded an amyloid nucleation score of 1.5 ± 0.43.

DSLMQVNWN came in with an amyloid nucleation score of 1.01 ± 0.36.

In the case of DSLNCGSRCKSAGDSNRWSL, the amyloid nucleation score is 0.11 ± 0.65.

As to DSNTSSDILGLSYLYGRTRL, the amyloid nucleation score was determined as 0.168 ± 0.37.

With DSPFLQNLMWNIFVGRIATM, the amyloid nucleation score is -0.272 ± 0.31.

In turn, DSRTFGITYYNDVLITGLCR came in with an amyloid nucleation score of -0.709 ± 0.39.

In the case of DSSVQRRLS, the amyloid nucleation score was found to be 0.121 ± 0.56.

DSWNRYNPFCPWKSYVTDSH: the amyloid nucleation score is -0.926 ± 0.76.

For DTGNMVSEKPGGILSDMGRI, the amyloid nucleation score result was “inactive”.

As to DTGSPDGWAQWLPYSEFLGM, the amyloid nucleation score is -0.283 ± 0.65.

For the substance DTIGAATLTITVWNSFMVGP, the amyloid nucleation score is 4.15 ± 0.076.

DTLFLTCPSLHH gave an amyloid nucleation score of 0.811 ± 0.58.

In turn, DTLWEGSLLNVYFVDVIRST came in with an amyloid nucleation score of 0.06 ± 0.55.

In the case of DTNLFTGGSLSVFYFDDGDK, the amyloid nucleation score is 2.96 ± 0.15.

Consider DTNVCHIYFGFELLSRFFCN, for which the amyloid nucleation score was 0.252 ± 0.36.

Substance DTPITDCELPAYFQVITNWL showed an amyloid nucleation score of 0.007 ± 0.76.

Substance DTTALHRVTASTLGHRFSLG registered an amyloid nucleation score of 0.58 ± 0.56.

Consider DTVLAI, for which the amyloid nucleation score came out at 0.035 ± 0.74.

For the substance DVCLHMGKYSNVLILGHNWS, the amyloid nucleation score is -0.449 ± 0.36.

DVFYRSVPMQVGWQVMWACD came in with an amyloid nucleation score of 0.703 ± 0.15.

For the substance DVGCAMPSYTRGWYVYSNLM, the amyloid nucleation score was found to be 0.58 ± 0.42.

Turning to DVKIVYSKTDRWRMGRSPES, the amyloid nucleation score turned out to be 1.55 ± 0.2.

In the case of DVKWA, the amyloid nucleation score amounted to 1.1 ± 0.21.

Take DVLVINKLHLRWAGFDARGI: the amyloid nucleation score came to 5.05 ± 0.1.

For DVMYFGASLGTFVGVIADWE, the amyloid nucleation score result was “inactive”.

The substance DVSGLNIVERGYKRCTGGND yielded an amyloid nucleation score of -0.054 ± 0.62.

DVWIFMTECGDAV had an amyloid nucleation score of 0.743 ± 0.81.

On to DVWWTYMYFKMSTVHAMSLF, for which the amyloid nucleation score was -0.113 ± 1.1.

In turn, DWRSLRLGVK yielded an amyloid nucleation score of -0.065 ± 0.32.

DYGNLYL: the amyloid nucleation score is -0.291 ± 1.1.

In turn, DYIDKPELLSVLGTRQMKCF gave an amyloid nucleation score of 0.241 ± 0.35.

Take DYLKRDVSTFSLS: the amyloid nucleation score is -0.021 ± 0.29.

As to DYNKLVAWALCLCFFRFRRN, the amyloid nucleation score came out at 0.762 ± 0.81.

For DYNSNMSFSRLCTRVTCHSM, the amyloid nucleation score entry is “inactive”.

DYSVEGHLRMLLNKKRVGVE showed an amyloid nucleation score of -1.01 ± 0.76.

In the case of EALSLLSR, the amyloid nucleation score is -0.22 ± 1.

As to EAWADGSIMYSYTRPDGDKV, the amyloid nucleation score is 0.421 ± 0.24.

With ECRGCAWA, the amyloid nucleation score amounted to 3.95 ± 0.046.

In turn, ECVRCC returned an amyloid nucleation score of -1.11 ± 0.76.

In turn, EDFVLWLMW displayed an amyloid nucleation score of -0.641 ± 0.63.

Consider EEQKSYSENMPV, for which the amyloid nucleation score was -0.21 ± 0.56.

EERVCLSPSDSSSRMLGQKV: the amyloid nucleation score is -0.078 ± 0.35.

In the case of EFCIHVSVLINPRGSNYDKW, the amyloid nucleation score is -0.487 ± 1.1.

EFDQWFLLFSLRSSFGLYLF: the amyloid nucleation score was 0.078 ± 0.25.

Regarding EFRTAFLVI, the amyloid nucleation score was determined as 0.138 ± 1.1.

As to EFRWYNFLWY, the amyloid nucleation score is -0.618 ± 1.1.

EGTCPSSGNILSWKSFCVVG had an amyloid nucleation score of -0.519 ± 0.25.

Turning to EGTTKFDWHYYQVSTGNFAS, the amyloid nucleation score is 1.05 ± 0.51.

As to EGVKF, the amyloid nucleation score worked out at 0.436 ± 0.8.

Turning to EGVKLECVLYVYDHSARRLL, the amyloid nucleation score result was “inactive”.

As for EHSWIKLCIEWMSKPIGARR, the amyloid nucleation score came to 0.927 ± 0.32.

EITSKMSSWGSLTASALTIS gave an amyloid nucleation score of -0.104 ± 0.48.

As for EKVGS, the amyloid nucleation score was -0.097 ± 1.1.

For the substance ELAMNIMMAFYYVCSIISTE, the amyloid nucleation score result was “inactive”.

ELDWKASTIGKMNHIRLERR displayed an amyloid nucleation score of 0.145 ± 0.23.

The substance ELFYDLSQTCQMCF registered an amyloid nucleation score of -0.759 ± 0.64.

ELILFITYTCIFWADCGRLY returned an amyloid nucleation score of -2.12 ± 1.1.

For the substance ELKFSINWHW, the amyloid nucleation score is 4.4 ± 0.083.

ELLHFSSISTS: the amyloid nucleation score entry was “inactive”.

Take ELLYWCANHDAGIVRVEFWW: the amyloid nucleation score was 1.48 ± 0.1.

As for ELQRKNTGLKVDLKAHIHRF, the amyloid nucleation score worked out at 5.37 ± 0.063.

ELVLF: the amyloid nucleation score was -0.454 ± 0.42.

EMCCTENCLEGSKVLAQFYC yielded an amyloid nucleation score of -1.02 ± 0.61.

EMLKHCYTSTQSSYSFIYWR returned an amyloid nucleation score of -0.27 ± 0.65.

With EMYVNFMHVDGDGVPQHDAW, the amyloid nucleation score stood at 0.929 ± 0.37.

As to EPSCTATKFVSGTMF, the amyloid nucleation score was 2.17 ± 0.11.

Take EPVGYSMLGHVIKTVLVLAR: the amyloid nucleation score entry is “inactive”.

The substance EQMGCTGLVFNVCEGFEDVM yielded an amyloid nucleation score of 3.44 ± 0.059.

In the case of EQRILRLSRSIESFSMNRNQ, the amyloid nucleation score was -0.593 ± 0.64.

Consider ERGQGKHRNEGVHYNRWCGC, for which the amyloid nucleation score is 2.15 ± 0.17.

Substance ERGSGASMFVDGGRYRSRPM showed an amyloid nucleation score of -0.159 ± 1.

For the substance ERRRFRVDRKVLAFFYVSGT, the amyloid nucleation score worked out at 0.046 ± 0.37.

In turn, ERRTCTRLPNVSRARIR displayed an amyloid nucleation score of 1.27 ± 0.21.

ERTVKETFSTGNSYEGTGRR showed an amyloid nucleation score of -0.468 ± 0.53.

ESAAER returned an amyloid nucleation score of -0.186 ± 0.76.

With ESHTGYNIPVIRSHPPYNRS, the amyloid nucleation score was -0.869 ± 0.64.

For ESLEADN, the amyloid nucleation score result is “inactive”.

With ESSIRHRGMERRCRLHKRH, the amyloid nucleation score was 0.546 ± 0.39.

Substance ESYRPPVKTFGLGIRMGLFV displayed an amyloid nucleation score of -0.975 ± 1.1.

Take ETEGKGRWKD: the amyloid nucleation score entry was “inactive”.

As to ETGSIVVKMLPSRWGSLRLV, the amyloid nucleation score was 3.19 ± 0.11.

In the case of ETKKLYDRAARERRCCRNHY, the amyloid nucleation score came to 0.078 ± 0.3.

Turning to EVFGGFTRRRCVVLPRHRAW, the amyloid nucleation score is 1.9 ± 0.27.

EVGKNRTSHIL showed an amyloid nucleation score of -0.134 ± 0.55.

Turning to EVHASYVRTSWDVCTWVGHV, the amyloid nucleation score was 2.29 ± 0.26.

The substance EVRFSILFGSVIKRTV registered an amyloid nucleation score of 1.09 ± 0.21.

EVRWASAPRNCCR came in with an amyloid nucleation score of 0.79 ± 0.26.

Substance EWSFLMNFSIMYRHFRVLAL displayed an amyloid nucleation score of -1.35 ± 0.78.

As to EWVAVGTDQR, the amyloid nucleation score was 1.25 ± 0.29.
